No end group written: not given here.
Target: recombinant LDHA (human, UniProt P00338 1-332)
Assay: fluorescence polarisation

- binding result: binds
B1: FLCN-10 peptide (aa 219-228), rhodamine B-labeled (peptide, UniProt Q8NFG4 219-228, looked up)
peptide: AQRMNTAFTP
modifications: also: rhodamine B label (position not given here)

Source: article PMC9278990 (Nature structural & molecular biology, 2021)
